We go through two molecules from patent US20240301061A1.

Assay [1] has as its target CD3ε/δ (UniProt P07766). Kind of assay: SPR, antibody captured on anti-human Fc surface.
Assay [2] concerns the target CD3ε/δ (UniProt P07766). Kind of assay: SPR.

Sequence of CD3ε/δ (P07766 23-126, stated change not applied, chain 1 of 2): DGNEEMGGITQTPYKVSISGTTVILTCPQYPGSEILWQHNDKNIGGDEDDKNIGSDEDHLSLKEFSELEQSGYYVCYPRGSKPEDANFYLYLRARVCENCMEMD
Sequence of CD3ε/δ (P04234 22-105, stated change not applied, chain 2 of 2, further chain): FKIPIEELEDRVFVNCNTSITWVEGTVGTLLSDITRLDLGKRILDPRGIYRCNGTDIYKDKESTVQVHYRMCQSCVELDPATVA

B1: chimeric sp34 (antibody, V domains shown)
VH: EVQLVESGGGLVQPKGSLKLSCAASGFTFNTYAMNWVRQAPGKGLEWVARIRSKYNNYATYYADSVKDRFTISRDDSQSILYLQMNNLKTEDTAMYYCVRHGNFGNSYVSWFAYWGQGTLVTVSS
VL: QAVVTQESALTTSPGETVTLTCRSSTGAVTTSNYANWVQEKPDHLFTGLIGGTNKRAPGVPARFSGSLIGDKAALTITGAQTEDEAIYFCALWYSNLWVFGGGTKLTVL
In the assay with CD3ε/δ [1], B1 showed a Kd of 27.1 nM, a koff of 0.00296 s⁻¹ and a kon of 109000 M⁻¹ s⁻¹.

B2: humanized sp34 scFv BG561P (Fc fusion, not shown: a dimerising Fc or GST)
scFv: EVQLVESGGGLVQPGGSLRLSCAASGFTFNTYAMNWVRQAPGKGLEWVARIRSKYNNYATYYADSVKDRFTISRDDAKNSLYLQMNSLRAEDTAVYYCVRHGNFGNSYVSWFAYWGQGTLVTVSSGGGGSGGGGSGGGGSEIVLTQSPATLSVSPGERATLSCRSSTGAVTTSNYANWVQQKPGQAPRGLIGGTNKRAPGIPARFSGSLSGDEATLTISSLQSEDFAVYYCALWYSNLWVFGGGTKVEIK
In the assay with CD3ε/δ [2], B2 showed a Kd of 25.9 nM, a koff of 0.00188 s⁻¹ and a kon of 72500 M⁻¹ s⁻¹.
